According to patent publication US9662404B2, “Compositions and methods for the delivery of molecules into live cells” (The Texas A&M University System, priority 2013, dated 2017):
Ends that are not written are not given here.

Legend:
[1] = test system: HeLa, NIH 3T3, COLO 316 and HaCaT; settings: 5 μM
Procedure: The TAT, dTAT and acTAT peptides were incubated for 1 h with several cell lines and internalization was assessed by fluorescence microscopy. […] See also FIG. 5. […] The cell lines HeLa, NIH 3T3, COLO 316 and HaCaT were incubated with 5 μM dTAT for 1 h, washed and imaged. […] After imaging, cells were incubated at 37° C. in a humidified atmosphere containing 5% CO2 for 24 h, washed and imaged again. […] Cell viability was assessed by exclusion of the cell-impermeable nuclear stain SYTOX® Blue at both 1 h and 24 h time point. […] Inverted monochrome (black=fluorescence signal, white-no signal) fluorescence images were made of HeLa cells incubated with 10 or 20 μM of TAT for 1 h.
Live cells from different lines (HeLa, HaCat, NIH 3T3) were grown in Dulbecco's […] (DMEM) (Fisher) supplemented with 10% fetal bovine serum (FBS) (Fisher) and kept at 37° C. in a humidified atmosphere containing 5% CO2. […] Images were acquired using bright field imaging and three standard fluorescence filter sets: CFP (Ex=436±10 nm/Em=480±20 nm), RFP (Ex=560±20 nm/Em=630±35 nm), and FITC (Ex=488±10 nm/Em=520±20 nm). The fluorescence intensities of different cells were measured with the SlideBook 4.2 software (Olympus, Center Valley, Pa.) and the average fluorescence intensity was determined for each condition. […]

[2] = test system: HeLa cells; assay: Cell viability, SYTOX exclusion assay; format: cell-based
Procedure: (§1) In order to determine cells that had compromised plasma membranes, cells were treated with SYTOX® Green (SYTOX® Blue in some cases) and Hoechst (Invitrogen, Carlsbad, Calif.). SYTOX® dyes are cell-impermeable and stain the DNA of cells with compromised plasma membranes. The Hoechst dye is cell permeable and stains the DNA of all cells. Images were acquired using the green and blue filter. The green and blue images were used to count cells with a blue or green stained nucleus. Image J was used to count the dead (green) and total cells (blue). Cytotoxicity was determined from the ratio of SYTOX® Green positive cells/total number of cells. An MTT-assay was performed to determine the effect of the peptide on cell proliferation. Cells were seeded in a 6-well dish, grown and washed as described above. One well from the dish was incubated with 5 μM dTAT at 37° C. for 1 h. A second well was left untreated and served as control. […] Cells were trypsinized and seeded into 96-well dishes containing 200 μL of DMEM. The cells were then allowed to attach to the bottom of the dish for 12 h. […] After the incubation each sample was mixed and the absorbance at 600 nm was measured. […] A second control consisted of cells treated with the delivery peptide but to which no MTT was added to subtract the contribution of TMR from the measured absorbance. The absorbance of the negative control was subtracted from all samples.

[3] = test system: HeLa cells; assay: Cell proliferation, MTT assay; format: cell-based; settings: 5 μM, 1 h; up to 36 h after incubation
Procedure: as §1

[4] = test system: HeLa, Neuro-2a and HDF cells; assay: Cell proliferation, MTT assay in several cell types; format: cell-based; settings: 5 μM, 1 h; up to 36 h after incubation
Procedure: FIG. 12 illustrates that cells treated with dTAT proliferate at a rate identical to untreated cells. HeLa, Neuro-2a and HDF cells were incubated with 5 μM dTAT for 1 h or left untreated. Proliferation was assessed using a MTT assay for up to 36 h after incubation (150,000 cells/experiment, experiments in triplicates, average and standard deviations represented).
In order to determine cells that had compromised plasma membranes, cells were treated with SYTOX® Green (SYTOX® Blue in some cases) and Hoechst (Invitrogen, Carlsbad, Calif.). SYTOX® dyes are cell-impermeable and stain the DNA of cells with compromised plasma membranes. The Hoechst dye is cell permeable and stains the DNA of all cells. Images were acquired using the green and blue filter. The green and blue images were used to count cells with a blue or green stained nucleus. Image J was used to count the dead (green) and total cells (blue). Cytotoxicity was determined from the ratio of SYTOX® Green positive cells/total number of cells. […] After the incubation each sample was mixed and the absorbance at 600 nm was measured. […] A second control consisted of cells treated with the delivery peptide but to which no MTT was added to subtract the contribution of TMR from the measured absorbance. The absorbance of the negative control was subtracted from all samples.

[5] = test system: cells; assay: Whole-genome microarray analysis after dTAT treatment; format: cell-based; settings: 5 μM, 1 h; analysis immediately, 1 h or 24 h after treatment
Procedure: To better determine the effect of dTAT exposure on a cell, a whole-genome microarray analysis was performed on cells treated with 5 μM dTAT for 1 h to determine whether transcriptional patterns are influenced. Analysis was performed immediately, 1 h, or 24 h after dTAT treatment. […] The straight lines represent 2-fold intensity change cut-offs.

[6] = biological target: EGFP (Aequorea victoria, UniProt P42212, F64L/H231L/S65T); settings: EGFP 1 μM, dTAT 5 μM, excitation 488 nm
Procedure: Fluorescence emission spectra were obtained using an SLM-8000C fluorometer upgraded with the phoenix package (ISS, Champaign, Ill.) and Vinci v.1.6 PC software (ISS). The experiments were conducted using a quartz cuvette at room temperature. The samples were excited at 488 nm (slit width=1 mm) and the fluorescence emission was scanned from 500 to 650 nm (slit width=1 mm). All samples (EGFP (1 μM) and dTAT (5 μM)) were prepared using nrL-15.

[7] = test system: HeLa cells; assay: Step-wise repeated delivery of DEAC-K9 and SNAP-Surface 488; format: cell-based; settings: 5 μM dTAT + 5 μM DEAC-K9 1 h, then 5 μM dTAT + 5 μM SNAP-Surface 488 1 h
Procedure: To test this idea, the step-wise delivery of two different molecules (DEAC-K9 and SNAP-Surface® 488) was assessed. Cells were first incubated with dTAT (5 μM) and DEAC-K9 (5 μM) for 1 h. […] Twenty minutes later, cells were incubated with dTAT (5 μM) and SNAP-Surface® 488 (5 μM) for 1 h. […] Briefly, HeLa cells were first incubated with 5 μM dTAT and 5 μM DEAC-K9 for 1 h. Cells were then washed, incubated with 5 μM SNAP-Surface® 488 for 1 h and imaged.

Substance: (CK(TMR)TAT)2 (CK(TMR)RKKRRQRRRG; also: dimer) [dTAT, dimer of two CK(TMR)-TAT monomers linked via a disulfide bond between the N-terminal cysteine residues]
- cellular localization of fluorescence signal ([1]; 1 h): in the cytosol and nucleus of cells
- plasma membrane integrity, SYTOX Blue staining ([1]; 1 h incubation, 1 h and 24 h time points): not stained with SYTOX® Blue
- effect on cell viability ([2]; 5 μM): does not affect cell viability
- fraction of dead cells ([2]; 5 μM dTAT, 1 h incubation, 1, 24 and 48 h after incubation): below 5%
- cell growth versus untreated cells [3]: grow at the same rate as untreated cells
- proliferation of treated versus untreated cells [4]: nearly identical proliferation patterns
- transcriptional response on a whole-genome scale [5]: minimal transcriptional perturbations
- binding to EGFP [6]: does not bind to EGFP
- repeatability of dTAT-mediated delivery [7]: can be repeated
